{"source": "patent US10253076B2", "about": "“Peptides and combination of peptides for use in immunotherapy against ovarian cancer and other cancers” (immatics biotechnologies GmbH, priority 2015, dated 2019)", "data": [{"target": "HLA-A*02:01 (Homo sapiens, UniProt P04439, D140Y/D185E/D98H/E176V/E277Q/G131W/G231S/I119V/I121R/I166T/I218V/L300P/L318F/N151K/N90K/P208A/P217A/Q86G/Q94H/R138H/R169H/T345S)", "assay": "MHC binding assay (UV-ligand exchange, beta2m ELISA, peptide exchange yield)", "settings": "binding of HLA-class I restricted peptides to HLA-A*02:01, ranged by peptide exchange yield (UV-ligand exchange, β2m ELISA)", "outline": "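Peptide–HLA-A*02:01 complexes made by UV-mediated exchange of a photocleavable peptide with the test peptide. Exchange products diluted 100-fold on streptavidin-coated plates, 1 h at 37°C, then HRP anti-β2m 1 h at 37°C; TMB read at 450 nm to give exchange yield.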", "values": [{"substance": "136 (YLADPSNLFVV; listed as Homo sapiens) [compound 136]", "Peptide exchange": "″+++″ (≥50% = +++)"}, {"substance": "569 (KLVDRTWTL; listed as Homo sapiens) [compound 569]", "Peptide exchange": "″+++″ (≥50% = +++)"}, {"substance": "201 (RLVDYLEGI; listed as Homo sapiens) [compound 201]", "Peptide exchange": "″+++″ (≥50% = +++)"}, {"substance": "59 (IMEDIILTL; listed as Homo sapiens) [compound 59]", "Peptide exchange": "″+++″ (≥50% = +++)"}, {"substance": "151 (KILQQLVTL; listed as Homo sapiens) [compound 151]", "Peptide exchange": "″+++″ (≥50% = +++)"}, {"substance": "502 (RLLAQVPGL; listed as Homo sapiens) [compound 502]", "Peptide exchange": "″+++″ (≥50% = +++)"}, {"substance": "64 (YAAPGGLIGV; listed as Homo sapiens) [compound 64]", "Peptide exchange": "″++″ (≥20% = ++)"}, {"substance": "351 (SLIPNLRNV; listed as Homo sapiens) [compound 351]", "Peptide exchange": "″+++″ (≥50% = +++)"}, {"substance": "14 (AAYGGLNEKSFV; listed as Homo sapiens) [compound 14]", "Peptide exchange": "″+++″ (≥50% = +++)"}, {"substance": "80 (FLYDNLVESL; listed as Homo sapiens) [compound 80]", "Peptide exchange": "″++″ (≥20% = ++)"}, {"substance": "255 (VLASYNLTV; listed as Homo sapiens) [compound 255]", "Peptide exchange": "″+++″ (≥50% = +++)"}, {"substance": "155 (RVANLHFPSV; listed as Homo sapiens) [compound 155]", "Peptide exchange": "″+++″ (≥50% = +++)"}, {"substance": "599 (YLLNDASLISV; listed as Homo sapiens) [compound 599]", "Peptide exchange": "″+++″ (≥50% = +++)"}, {"substance": "277 (LLPPLESLATV; listed as Homo sapiens) [compound 277]", "Peptide exchange": "″++″ (≥20% = ++)"}, {"substance": "265 (LLFGGTKTV; listed as Homo sapiens) [compound 265]", "Peptide exchange": "″++″ (≥20% = ++)"}, {"substance": "469 (YLASDEITTV; listed as Homo sapiens) [compound 469]", "Peptide exchange": "″+++″ (≥50% = +++)"}, {"substance": "401 (ILLDDTGLAYI; listed as Homo sapiens) [compound 401]", "Peptide exchange": "″+++″ (≥50% = +++)"}, {"substance": "128 (YLFDDPLSAV; listed as Homo sapiens) [compound 128]", "Peptide exchange": "″++″ (≥20% = ++)"}, {"substance": "163 (ALDEMGDLLQL; listed as Homo sapiens) [compound 163]", "Peptide exchange": "″+++″ (≥50% = +++)"}, {"substance": "25 (FLPDEPYIKV; listed as Homo sapiens) [compound 25]", "Peptide exchange": "″+++″ (≥50% = +++)"}, {"substance": "326 (FLPEALDFV; listed as Homo sapiens) [compound 326]", "Peptide exchange": "″+++″ (≥50% = +++)"}, {"substance": "366 (RLLDMGETDLML; listed as Homo sapiens) [compound 366]", "Peptide exchange": "″+++″ (≥50% = +++)"}, {"substance": "392 (ALLHPQGFEV; listed as Homo sapiens) [compound 392]", "Peptide exchange": "″++″ (≥20% = ++)"}, {"substance": "72 (SLLELDGINL; listed as Homo sapiens) [compound 72]", "Peptide exchange": "″+++″ (≥50% = +++)"}, {"substance": "385 (SLLEQGLVEA; listed as Homo sapiens) [compound 385]", "Peptide exchange": "″++″ (≥20% = ++)"}, {"substance": "221 (ALYEEGLLL; listed as Homo sapiens) [compound 221]", "Peptide exchange": "″++″ (≥20% = ++)"}, {"substance": "167 (KVLEVTEEFGV; listed as Homo sapiens) [compound 167]", "Peptide exchange": "″+++″ (≥50% = +++)"}, {"substance": "436 (HLAEVSAEV; listed as Homo sapiens) [compound 436]", "Peptide exchange": "″+++″ (≥50% = +++)"}, {"substance": "107 (FLQPVDDTQHL; listed as Homo sapiens) [compound 107]", "Peptide exchange": "″+++″ (≥50% = +++)"}, {"substance": "531 (YTLPIASSIRL; listed as Homo sapiens) [compound 531]", "Peptide exchange": "″+++″ (≥50% = +++)"}, {"substance": "110 (FLSQVDFEL; listed as Homo sapiens) [compound 110]", "Peptide exchange": "″+++″ (≥50% = +++)"}, {"substance": "190 (FLSSLTETI; listed as Homo sapiens) [compound 190]", "Peptide exchange": "″+++″ (≥50% = +++)"}, {"substance": "173 (LLDSASAGLYL; listed as Homo sapiens) [compound 173]", "Peptide exchange": "″+++″ (≥50% = +++)"}, {"substance": "189 (ALQRKLPYV; listed as Homo sapiens) [compound 189]", "Peptide exchange": "″+++″ (≥50% = +++)"}, {"substance": "42 (VLLQKIVSA; listed as Homo sapiens) [compound 42]", "Peptide exchange": "″+++″ (≥50% = +++)"}, {"substance": "137 (TLVLTLPTV; listed as Homo sapiens) [compound 137]", "Peptide exchange": "″++++″ (≥75% = ++++)"}, {"substance": "172 (VLYSYTIITV; listed as Homo sapiens) [compound 172]", "Peptide exchange": "″++″ (≥20% = ++)"}, {"substance": "395 (ALALGGIAVV; listed as Homo sapiens) [compound 395]", "Peptide exchange": "″++++″ (≥75% = ++++)"}, {"substance": "209 (KLIESKHEV; listed as Homo sapiens) [compound 209]", "Peptide exchange": "″++″ (≥20% = ++)"}, {"substance": "461 (VMFRTPLASV; listed as Homo sapiens) [compound 461]", "Peptide exchange": "″++″ (≥20% = ++)"}, {"substance": "6 (VLVSDGVHSV; listed as Homo sapiens) [compound 6]", "Peptide exchange": "″+++″ (≥50% = +++)"}, {"substance": "245 (SMIDDLLGV; listed as Homo sapiens) [compound 245]", "Peptide exchange": "″+++″ (≥50% = +++)"}, {"substance": "68 (SLMELPRGLFL; listed as Homo sapiens) [compound 68]", "Peptide exchange": "″++++″ (≥75% = ++++)"}, {"substance": "287 (FLNEFFLNV; listed as Homo sapiens) [compound 287]", "Peptide exchange": "″+++″ (≥50% = +++)"}, {"substance": "593 (GLPRFGIEMV; listed as Homo sapiens) [compound 593]", "Peptide exchange": "″+++″ (≥50% = +++)"}, {"substance": "433 (AMLNEPWAV; listed as Homo sapiens) [compound 433]", "Peptide exchange": "″+++″ (≥50% = +++)"}, {"substance": "22 (IMEENPGIFAV; listed as Homo sapiens) [compound 22]", "Peptide exchange": "″+++″ (≥50% = +++)"}, {"substance": "285 (QLLHVGVTV; listed as Homo sapiens) [compound 285]", "Peptide exchange": "″+++″ (≥50% = +++)"}, {"substance": "281 (ILRESTEEL; listed as Homo sapiens) [compound 281]", "Peptide exchange": "″+++″ (≥50% = +++)"}, {"substance": "146 (SLATAGDGLIEL; listed as Homo sapiens) [compound 146]", "Peptide exchange": "″++″ (≥20% = ++)"}, {"substance": "562 (YLEELPEKLKL; listed as Homo sapiens) [compound 562]", "Peptide exchange": "″+++″ (≥50% = +++)"}, {"substance": "44 (ILDPISSGFLL; listed as Homo sapiens) [compound 44]", "Peptide exchange": "″++″ (≥20% = ++)"}, {"substance": "106 (LLYDAVHIVSV; listed as Homo sapiens) [compound 106]", "Peptide exchange": "″+++″ (≥50% = +++)"}, {"substance": "251 (ALYTGFSILV; listed as Homo sapiens) [compound 251]", "Peptide exchange": "″++″ (≥20% = ++)"}, {"substance": "587 (VMNDRLYAI; listed as Homo sapiens) [compound 587]", "Peptide exchange": "″+++″ (≥50% = +++)"}, {"substance": "617 (ALMYESEKVGV; listed as Homo sapiens) [compound 617]", "Peptide exchange": "″+++″ (≥50% = +++)"}, {"substance": "238 (YLISFQTHI; listed as Homo sapiens) [compound 238]", "Peptide exchange": "″+++″ (≥50% = +++)"}, {"substance": "441 (ALLENPKMEL; listed as Homo sapiens) [compound 441]", "Peptide exchange": "″+++″ (≥50% = +++)"}, {"substance": "467 (FLAKDFNFL; listed as Homo sapiens) [compound 467]", "Peptide exchange": "″+++″ (≥50% = +++)"}, {"substance": "147 (SLLEAVSFL; listed as Homo sapiens) [compound 147]", "Peptide exchange": "″+++″ (≥50% = +++)"}, {"substance": "457 (SLLPGNLVEKV; listed as Homo sapiens) [compound 457]", "Peptide exchange": "″+++″ (≥50% = +++)"}, {"substance": "248 (FLFPNQYVDV; listed as Homo sapiens) [compound 248]", "Peptide exchange": "″+++″ (≥50% = +++)"}, {"substance": "244 (SLFGGTEITI; listed as Homo sapiens) [compound 244]", "Peptide exchange": "″+++″ (≥50% = +++)"}, {"substance": "335 (YSLSSVVTV; listed as Homo sapiens) [compound 335]", "Peptide exchange": "″+++″ (≥50% = +++)"}, {"substance": "272 (ALGNTVPAV; listed as Homo sapiens) [compound 272]", "Peptide exchange": "″+++″ (≥50% = +++)"}, {"substance": "370 (SLLQDLVSV; listed as Homo sapiens) [compound 370]", "Peptide exchange": "″+++″ (≥50% = +++)"}, {"substance": "396 (ALLPDLPAL; listed as Homo sapiens) [compound 396]", "Peptide exchange": "″+++″ (≥50% = +++)"}, {"substance": "332 (YLISELEAA; listed as Homo sapiens) [compound 332]", "Peptide exchange": "″+++″ (≥50% = +++)"}, {"substance": "306 (ALVNVQIPL; listed as Homo sapiens) [compound 306]", "Peptide exchange": "″+++″ (≥50% = +++)"}, {"substance": "544 (LLWDVPAPSL; listed as Homo sapiens) [compound 544]", "Peptide exchange": "″+++″ (≥50% = +++)"}, {"substance": "342 (HIYDKVMTV; listed as Homo sapiens) [compound 342]", "Peptide exchange": "″+++″ (≥50% = +++)"}, {"substance": "23 (VLLDDIFAQL; listed as Homo sapiens) [compound 23]", "Peptide exchange": "″+++″ (≥50% = +++)"}, {"substance": "15 (VLLTFKIFL; listed as Homo sapiens) [compound 15]", "Peptide exchange": "″++″ (≥20% = ++)"}, {"substance": "258 (ELAERVPAI; listed as Homo sapiens) [compound 258]", "Peptide exchange": "″++″ (≥20% = ++)"}, {"substance": "219 (KLSDIGITV; listed as Homo sapiens) [compound 219]", "Peptide exchange": "″+++″ (≥50% = +++)"}, {"substance": "583 (ILANDGVLLAA; listed as Homo sapiens) [compound 583]", "Peptide exchange": "″+++″ (≥50% = +++)"}, {"substance": "618 (VLFDSESIGIYV; listed as Homo sapiens) [compound 618]", "Peptide exchange": "″+++″ (≥50% = +++)"}]}]}
